Measured values published in patent publication US20250375505A1, “COMPOSITIONS AND METHODS FOR MODIFYING BILE ACIDS TO REGULATE LIPID AND STEROID METABOLISM” (The Regents of the University of California, priority 2021, published 2025).

How the values were obtained:
CA, CDCA, and DCA = settings: expressed in E. coli C41-pLys
Method: Escherichia coli C41-pLys (Lucigen) was used for characterizing putative bile modification genes, which were expressed off the pET21+plasmid. E. coli was grown acrobically shaking at 37° C. C in Luria Broth (LB, 1% NaCl, 1% tryptone, 0.5% yeast extract) supplemented with 100 μg mL^−1 ampicillin. Expression of genes was induced by addition of 100 μM IPTG.
In vitro characterization of bile transformations by engineered E. coli or B. thetaiotaomicron strains were performed by growing cells in respective media conditions described above supplemented with 0.5 mM (total combined concentration) of the noted bile species. Cells were grown to stationary phase (shaking at 37° C.), then frozen at −80° C. until further processing. Cells were then thawed, pelleted (5 minutes at 16,000×g), and the supernatant was removed to a new microcentrifuge tube. Three volumes of methanol was added, then the mixture was vigorously mixed for 30-60 seconds and incubated (room temperature, 15 minutes). Mixtures were centrifuged (5 minutes, 16,000×g), the supernatant removed to a clean microcentrifuge tube and dried in a vacuum concentrator. The dried residue was treated with methanol/water/formic acid (50/50/0.1, all by volume) then vigorously mixed and centrifuged as described above. […] The effluent from the column was passed through an electrospray ion source (capillary voltage 42V, capillary temperature 275° C., sheath gas flow 15 L min^−1, spray voltage 5 kV, and −15 kV conversion dynode with −1.2 k V multipliers) connected to a linear ion trap mass spectrometer (Thermo LTQ) scanning from m/z 95-1000 in the positive ion mode. Spectra were recorded and analyzed with instrument-manufacturer supplied software. Confirmation of proposed elemental compositions was achieved using the same chromatography and ion source configuration with the spectra recorded by scanning on an orbitrap mass spectrometer (Thermo LTQ XL).

[1] = system: tauro- (TCA, TCDCA) or glyco- (GCA, GCDCA) bile acids; experiment: Deconjugation by E. coli C41-pLys expressing putative Turicibacter bsh genes (LC-MS); format: cell-based
Method: Control is E. coli with same expression vector but expressing non-bile-modifying gene. d, same as c, but with GCA and GCDCA instead of tauro-bile acids. e, Quantification of percent remaining (compared to media controls) of conjugated bile acid (TCA, TCDCA, GCA, GCDCA) after 24 h growth with E. coli expressing the noted Turicibacter bsh gene. n=3 independent cultures, *p<0.05, **p<0.005, ***p<0.0005 using one sample t-test comparison with 100% remaining. BSH nomenclature indicates homolog group (e.g. III) and isolate of origin (e.g. MOL361).
Conjugation increases bile acid solubility and emulsification ability^45, while deconjugation reverses these effects, leading to decreased dietary lipid absorption. To identify Turicibacter bile salt hydrolase (bsh) genes responsible for the strain-specific differences in bile deconjugation, the study first searched our assembled genomes for annotations of “choloylglycine hydrolase,” the broad category that includes these genes. […] Isolates within the same phylogenetic and phenotypic subgroups largely shared similar sequences (FIG. 11a, b). To assay the function of the strain-specific putative bsh genes, the study cloned and individually expressed one representative sequence from each of the eight putative choloylglycine hydrolase groups in E. coli C41-pLys and measured the ability of these engineered bacteria to perform the deconjugations the study observed in the native Turicibacter. The study cultured the individual E. coli strains to stationary phase in the presence of two tauro-(TCA, TCDCA) or glyco-(GCA, GCDCA) bile acids, then measured their ability to deconjugate these bile acid pools. […] Collectively, these findings reveal that Turicibacter strains contain a range of bile salt hydrolases with deconjugation preferences for different bile acids.
For bile species quantification, an internal spike-in standard of 100 mM chenodeoxycholic acid-D4 (CDCA-D4, Sigma) was added to initial culture supernatants as a normalization reference. Area under the curve from reconstructed ion chromatograms was used to quantify the abundances of each species.

[2] = expressed in E. coli C41-pLys, grown with two tauro- (TCA, TCDCA) or glyco- (GCA, GCDCA) bile acids

Molecule | bile salt hydrolase (deconjugation) activity [1, 2] | also measured
7α-HSDH homolog from MOL361: 7-alpha hydroxysteroid dehydrogenase homolog of MOL361, locus tag HLK68_RS02750, SEQ ID NO: 9, expressed in E. coli C41-pLys (protein, listed as Turicibacter sanguinis) MRKLENAIALVTSSTRGIGLACAKKLASEGAIVYMGVRRLEVTQEICDEVAKEGLKMKPVFFDAYNIDSYETMVEEVIREQGKIDILVNNFGTGRPEVDLDLVSGDEKAFFDILEANIGSVYRISKLVIPHMIKQGKGSIVNISSIGGTVPDISRIGYGVSKAGVNNITQQIAMQYARYNIRCNAVLPGLTATDAALDNMPEQFIKSFLSHVPLNRMGTPEDMANAVLFFASDDSSYVTGDIMEVSGGYHLGTPQYADFVGRKVVEEK |  | dehydrogenation of CA (CA, CDCA, and DCA; grown in CA): removed the mass equivalent of two hydrogens from CA; dehydrogenation of CDCA (CA, CDCA, and DCA; grown in CDCA): Background transformation by E. coli prevented clear evidence of CDCA dehydrogenation; dehydrogenation of DCA (CA, CDCA, and DCA; grown in DCA): did not act on DCA
BSH (group III): bile salt hydrolase group III from Turicibacter sanguinis 1E2, SEQ ID NO: 3 (protein, listed as Turicibacter sanguinis) MCTGLCLSTKDGKHLFGRNLDVPASYNQAVQIVPRNFKWLNVATQETITSKYACIAMGIVIDNHPLLFDGVNEKGLAGGGLNFTHFAKFSSTAVKDKISLSASDFVYWVLSTFSSLSELKETLPSVILTSIPFKPDLPVAGLHWIFTDKTGESIVIEYMEDGMHIHDNPVGVLTNDPTFDWQLTNLSQYVTLSCKTPQPEEMGNLLVKPFGHGLGMCGIPGDGSPAARFVRTVFFRDAVVGADDEISGVTAFFNVLSEVTVMKGSEIDPDGSMNFTVYKSAMCQESQTYYYTDYYNRRINAVKLTPDTMNADHITTFPYLGKQDICYQN | moderate activity on TCDCA | 
BSH (group II): bile salt hydrolase group II from Turicibacter sanguinis H121, SEQ ID NO: 2 (protein, listed as Turicibacter sanguinis) MCTGLSLTTKDGKHFFGRNLDVPASYGQSVHIIPRNFNWLNVVNGETLASKYACIGMGIVVDNHPLLFDAVNEKGLAGGGLNFTHFAKFNENAIDGKINISASDFVYWALSNFADLNELRQALENLVLTNIPFEHELPVAGLHWMFTDLSGRSIVIENMADGMHIHENPVGVLTNDPTFDWHLTNLRQYVTLEKATPAPKQMGDLLLHPYGHGLGMCGIPGDASPAARFVRTVFFRDSIVEANDEISGVTAFLNVLTGVTVIKGSEVDPDGSMNYTVYKSAMCQESGTYYYTDYYNRRINAVKLSNANLDSKEITSFPYQGEQDILFQN | activity on TCDCA and GCDCA | bile salt hydrolase (deconjugation) activity ([1]; expressed in E. coli, presented with the combined four bile acids): blunted
BSH (group IV): bile salt hydrolase group IV from Turicibacter sanguinis MOL361, SEQ ID NO: 4 (protein, listed as Turicibacter sanguinis) MCTALSLTAKDGSHLFGRNMDIEYSFNQSILLTPRRFDYKNRATGEMNQTKYAIIGMGTIIDEHPCYAELFNEKGLAAAGLNFPNYAHWDEKAIEGKTNIPPYDLVLWVTSNFETVKEVKEALKDVVLVDVPVNEQTPIAPLHWMICDKTGESIVVEKTVNGLSVMDNKVGVLTNAPTFDWHLTNLTQYMGLTSTQPKDITLGEQELHPLGQGLGAFSLPGDYSSPSRFVKAAFLRNNIDYANVNYSGISEFFHILNGVAMVRGSVVTPQHLNDITLYTSCMDQERGIYYYNTYTNHTISSINMHNEDLDAKEIKSFKFNDEFAVNLQN | tauro-specific | 
BSH (group I): bile salt hydrolase group I from Turicibacter sanguinis MOL361, SEQ ID NO: 1 (protein, listed as Turicibacter sanguinis) MCTGLSLVTKDNKHLFGRNLDVPATYGQAVHIVPRNYDWFNIVSDETYTSKYACIGMGIVVDRLPLLFDAVNEKGLAGAGLNFTHFAKFNEKAVDGKTNISGSTFLYWALSNFSNLDELKEALKQLIITNIPVKEGLPVAGLHWMFTDLSGKSIVIEYMEDGMHVYDNPVGALTNDPTFPWHLTNLCQYVTLDTKTPAPKQFGEYVAKPFGHGLNMCGIPGDASPAARFVRTVYFRDTVVEADDEVSGVSAFFQVLTGVTVIKGSEIDPNGDMNYTVYKSCMCQESGTYYYTDYKNRRISAVCLSKADLDGKEIISFEYQGKQDILFQN | deconjugates both glyco- and tauro-conjugates | 
